In publication PMC10440987, “SLG2 specifically regulates grain width through WOX11 ‐mediated cell expansion control in rice”:

T1: WOX11-MBP (Oryza sativa (rice; cultivar of the …, UniProt Q0D3I7 1-262)
T1 sequence: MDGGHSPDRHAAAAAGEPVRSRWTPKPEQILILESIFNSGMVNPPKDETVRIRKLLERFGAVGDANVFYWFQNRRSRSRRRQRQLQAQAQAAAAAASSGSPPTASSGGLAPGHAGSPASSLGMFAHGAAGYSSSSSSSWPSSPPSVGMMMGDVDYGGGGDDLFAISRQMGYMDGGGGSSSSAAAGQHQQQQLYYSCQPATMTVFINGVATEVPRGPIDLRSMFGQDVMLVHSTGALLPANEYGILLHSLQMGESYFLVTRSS


Key:
[1] = molecular target: T1, WOX11-MBP; test: EMSA; LightShift Chemiluminescent EMSA Kit (Thermo 20148), manufacturer's instructions; buffer, salt, pH and temperature not stated; settings: protein: recombinant; tags: MBP; label: 5' biotin; blunt
[2] = molecular target: T1, WOX11-MBP; test: competition EMSA; unlabelled competitor against biotin hot probe N1; LightShift Chemiluminescent EMSA Kit (Thermo 20148), manufacturer's instructions; buffer, salt, pH and temperature not stated; settings: protein: recombinant; tags: MBP; blunt

Row | Binder | binding result [1] | binding result [2]
1 | pOsEXPB7 hot probe (dsDNA) DNA 1: AGGGATCGATCGAAATTAATGGCGGGCAGGAGCAGGA DNA 2: TCCTGCTCCTGCCCGCCATTAATTTCGATCGATCCCT | binds | –
2 | pOsEXPB7 mutant probe (dsDNA) DNA 1: AGGGATCGATCGAAATCCATGGCGGGCAGGAGCAGGA DNA 2: TCCTGCTCCTGCCCGCCATGGATTTCGATCGATCCCT | no binding | –
3 | pOsEXPB7 cold probe (dsDNA) DNA 1: AGGGATCGATCGAAATTAATGGCGGGCAGGAGCAGGA DNA 2: TCCTGCTCCTGCCCGCCATTAATTTCGATCGATCCCT | – | binds
